B1: human Sirt1 (protein)
chain: MADEAALALQPGGSPSAAGADREAASSPAGEPLRKRPRRDGPGLERSPGEPGGAAPEREVPAAARGCPGAAAAALWREAEAEAAAAGGEQEAQATAAAGEGDNGPGLQGPSREPPLADNLYDEDDDDEGEEEEEAAAAAIGYRDNLLFGDEIITNGFHSCESDEEDRASHASSSDWTPRPRIGPYTFVQQHLMIGTDPRTILKDLLPETIPPPELDDMTLWQIVINILSEPPKRKKRKDINTIEDAVKLLQECKKIIVLTGAGVSVSCGIPDFRSRDGIYARLAVDFPDLPDPQAMFDIEYFRKDPRPFFKFAKEIYPGQFQPSLCHKFIALSDKEGKLLRNYTQNIDTLEQVAGIQRIIQCHGSFATASCLICKYKVDCEAVRGDIFNQVVPRCPRCPADEPLAIMKPEIVFFGENLPEQFHRAMKYDKDEVDLLIVIGSSLKVRPVALIPSSIPHEVPQILINREPLPHLHFDVELLGDCDVIINELCHRLGGEYAKLCCNPVKLSEITEKPPRTQKELAYLSELPPTPLHVSEDSSSPERTSPPDSSVIVTLLDQAAKSNDDLDVSESKGCMEEKPQEVQTSRNVESIAEQMENPDLKNVGSSTGEKNERTSVAGTVRKCWPNRVAKEQISRRLDGNQYLFLPPNRYIFHGAEVYSDSEDDVLSSSSCGSNSDSGTCQSPSLEEPMEDESEIEEFYNGLEDEPDVPERAGGAGFGTDGDDQEAINEAISVKQEVTDMNYPSNKS
As to B1, the “hydrolysis of acyl peptide (LC-MS)” value with H3K9 succinyl peptide is “but not the malonyl and succinyl peptides”. Besides, in the series with H3K9 acetyl peptide, the Km for acetyl peptide turned out to be 38 µM, the “hydrolysis of acyl peptide (LC-MS)” value is given as “Sirt1 catalyzed the hydrolysis of the acetyl peptide”, the kcat amounted to 0.039 s⁻¹ and the kcat/Km (s^-1M^-1) is 1000 s^-1M^-1. Moreover, the “hydrolysis of acyl peptide (LC-MS)” value with H3K9 malonyl peptide is “but not the malonyl and succinyl peptides”.

B2: human Sirt7 (protein)
chain: MAAGGLSRSERKAAERVRRLREEQQRERLRQVSRILRKAAAERSAEEGRLLAESADLVTELQGRSRRREGLKRRQEEVCDDPEELRGKVRELASAVRNAKYLVVYTGAGISTAASIPDYRGPNGVWTLLQKGRSVSAADLSEAEPTLTHMSITRLHEQKLVQHVVSQNCDGLHLRSGLPRTAISELHGNMYIEVCTSCVPNREYVRVFDVTERTALHRHQTGRTCHKCGTQLRDTIVHFGERGTLGQPLNWEAATEAASRADTILCLGSSLKVLKKYPRLWCMTKPPSRRPKLYIVNLQWTPKDDWAALKLHGKCDDVMRLLMAELGLEIPAYSRWQDPIFSLATPLRAGEEGSHSRKSLCRSREEAPPGDRGAPLSSAPILGGWFGRGCTKRTKRKKVT
On to B2, for which the “hydrolysis of acyl peptide (LC-MS)” value with H3K9 succinyl peptide is “Sirt6 and Sirt7 have no detectable activity on acetyl, malonyl, or succinyl peptides under the conditions tested”; in the series with H3K9 acetyl peptide, “Sirt6 and Sirt7 have no detectable activity on acetyl, malonyl, or succinyl peptides under the conditions tested”; in the series with H3K9 malonyl peptide, “Sirt6 and Sirt7 have no detectable activity on acetyl, malonyl, or succinyl peptides under the conditions tested”.

B3: human Sirt3 (protein)
chain: ISFSVGASSVVGSGGSSDKGKLSLQDVAELIRARACQRVVVMVGAGISTPSGIPDFRSPGSGLYSNLQQYDLPYPEAIFELPFFFHNPKPFFTLAKELYPGNYKPNVTHYFLRLLHDKGLLLRLYTQNIDGLERVSGIPASKLVEAHGTFASATCTVCQRPFPGEDIRADVMADRVPRCPVCTGVVKPDIVFFGEPLPQRFLLHVVDFPMADLLLILGTSLEVEPFASLTEAVRSSVPRLLINRDLVGPLAWHPRSRDVAQLGDVVHGVESLVELLGWTEEMRDLVQRETGKLDGPDK
Turning to B3, in the series with H3K9 acetyl peptide, the Km for acetyl peptide was 50 µM, the kcat was 0.012 s⁻¹ and the kcat/Km (s^-1M^-1) was found to be 240 s^-1M^-1.

B4: human Sirt2 (protein)
chain: MAEPDPSHPLETQAGKVQEAQDSDSDSEGGAAGGEADMDFLRNLFSQTLSLGSQKERLLDELTLEGVARYMQSERCRRVICLVGAGISTSAGIPDFRSPSTGLYDNLEKYHLPYPEAIFEISYFKKHPEPFFALAKELYPGQFKPTICHYFMRLLKDKGLLLRCYTQNIDTLERIAGLEQEDLVEAHGTFYTSHCVSASCRHEYPLSWMKEKIFSEVTPKCEDCQSLVKPDIVFFGESLPARFFSCMQSDFLKVDLLLVMGTSLQVQPFASLISKAPLSTPRLLINKEKAGQSDPFLGMIMGLGGGMDFDSKKAYRDVAWLGECDQGCLALAELLGWKKELEDLVRREHASIDAQSGAGVPNPSTSASPKKSPPPAKDEARTTEREKPQ
Take B4: in the series with H3K9 acetyl peptide, the Km for acetyl peptide was determined as 190 µM, the kcat came to 0.03 s⁻¹ and the kcat/Km (s^-1M^-1) amounted to 160 s^-1M^-1.

For orientation: kcat means the maximal rate divided by the concentration of active sites.

The record behind these values is US20150057236.
